Values quoted from earlier work, collected in PMC7663405.

Biological target: CD80 (Homo sapiens) (UniProt P33681)
Chain of UniProt P33681 (P33681 35-242): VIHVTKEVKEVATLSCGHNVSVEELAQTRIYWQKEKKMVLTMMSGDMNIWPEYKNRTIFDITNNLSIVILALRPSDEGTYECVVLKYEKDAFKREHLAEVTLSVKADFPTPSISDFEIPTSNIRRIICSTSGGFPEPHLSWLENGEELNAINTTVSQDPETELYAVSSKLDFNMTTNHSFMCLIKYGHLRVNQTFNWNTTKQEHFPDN

Kd: 1900 nM
Substance: PD-L1 (from UniProt Q9NZQ7)
